Where two headings read alike, the source gives them in different places.
B1: Construct 4, JB1-2XQBP1 (designed binder)
chain: MGKDYYQTLGLARGASDEEIKRAYRRQALRYHPDKNKEPGAEEKFKEIAEAYDVLSDPRKREIFDRYGEEGLKGSDIGGGGSGGGGSGGGGSGGGGSAAASNWKWWPGIFDGLESNWKWWPGIFD
B2: Construct 12, JB1(1-57)-2XQBP1 (designed binder)
chain: MGKDYYQTLGLARGASDEEIKRAYRRQALRYHPDKNKEPGAEEKFKEIAEAYDVLSDDIGGGGSGGGGSGGGGSGGGGSAAASNWKWWPGIFDGLESNWKWWPGIFD
B3: Construct 14, JB1(1-108)-2XQBP1 (designed binder)
chain: MGKDYYQTLGLARGASDEEIKRAYRRQALRYHPDKNKEPGAEEKFKEIAEAYDVLSDPRKREIFDRYGEEGLKGSGPSGGSGGGANGTSFSYTFHGDPHAMFAEFFGGDIGGGGSGGGGSGGGGSGGGGSAAASNWKWWPGIFDGLESNWKWWPGIFD
B4: Construct 15, JB1-2XQBP1 (no flexible linker) (designed binder)
chain: MGKDYYQTLGLARGASDEEIKRAYRRQALRYHPDKNKEPGAEEKFKEIAEAYDVLSDPRKREIFDRYGEEGLKGSDIAAASNWKWWPGIFDGLESNWKWWPGIFD
B5: Construct 16, JB1-2XQBP1 (rigid linker) (designed binder)
chain: MGKDYYQTLGLARGASDEEIKRAYRRQALRYHPDKNKEPGAEEKFKEIAEAYDVLSDPRKREIFDRYGEEGLKGSDIEAAAKAAASNWKWWPGIFDGLESNWKWWPGIFD
B6: Construct 34, JB1-QBP1-QBP1 (1) (designed binder)
chain: MGKDYYQTLGLARGASDEEIKRAYRRQALRYHPDKNKEPGAEEKFKEIAEAYDVLSDPRKREIFDRYGEEGLKGSGGGGSGGGGSGGGGSGGGGSAAASNWKWWPGIFDLEGDYKDDDDKGSRAAASNWKWWPGIFDLE
B7: Construct 59, JB13-QBP1-QBP1 (designed binder)
chain: MGQDYYSVLGITRNSEDAQIKQAYRRLALKHHPLKSNEPSSAEIFRQIAEAYDVLSDPMKRGIYDKFGEEGLKGGDIGGGGSGGGGSGGGGSAAASNWKWWPGIFDLEGDYKDDDDKGSRAAASNWKWWPGIFDLE
B8: Construct 61, JC7-QBP1-QBP1 (designed binder)
chain: MDYYKILGVDKNASEDEIKKAYRKRALMHHPDRHSGASAEVQKEEEKKFKEVGEAFTILSDPKKKTRYDSGQDIGGGGSGGGGSGGGGSAAASNWKWWPGIFDLEGDYKDDDDKGSRAAASNWKWWPGIFDLE
B9: Construct 62, DnaJ-QBP1-QBP1 (designed binder)
chain: MAKQDYYEILGVSKTAEEREIRKAYKRLAMKYHPDRNQGDKEAEAKFKEIKEAYEVLTDSQKRAAYDQYGHADIGGGGSGGGGSGGGGSAAASNWKWWPGIFDLEGDYKDDDDKGSRAAASNWKWWPGIFDLE

Tests used:
Assay in all cases: cell-based or functional assay
[1] = target: GFP-HTTQ74 reporter construct
[2] = target: GFP-HTTQ74 reporter construct; remark: listed apart in the source
[3] = target: GFP-HTTQ74 reporter construct; remark: listed apart in the source
[4] = target: GFP-HTTQ74 reporter construct; remark: listed apart in the source
[5] = target: GFP-HTTQ74 reporter construct; remark: listed apart in the source

Binder | % Aggregation (relative to Q74 alone), filter trap assay [1] [%] | % Aggregation (relative to Q74 alone), filter trap assay [4] [%] | Reduction (%) of protein aggregation [5] [%] | also measured
B1 | 29.7 | 24.9 | – | % Aggregation (relative to Q74 alone), filter trap assay [2]: 9.86%; Reduction of Aggregation (%), filter trap assay [3]: 24.9%
B2 | 40.3 | – | – | –
B3 | 32 | – | – | –
B4 | – | 24.5 | – | –
B5 | – | 17.6 | – | –
B6 | – | – | 96.1 | Reduction of Aggregation (%), filter trap assay [3]: 96.3%
B7 | – | – | -27 | –
B8 | – | – | 89 | –
B9 | – | – | 15.7 | –

Reference: US20230226223A1 (SOLA BIOSCIENCES, published 2023)
